Data reported in US20130171217A1, “ENZYMATIC PERACID GENERATION FOR USE IN SKIN CARE PRODUCTS” (E I DU PONT DE NEMOURS AND COMPANY, priority 2010, published 2013).

Tests used:
[1] = Assay for bound perhydrolase enzyme activity after treatment cycles (ABTS); assay type: binding
Experimental: The enzyme used in the following example was HC1121 (T. maritima C277S-HC263; SEQ ID NO: 288) and concentration used was 2500 μg/mL (E/H=10*). Enzyme solution was made in 5% TWEEN®-20 surfactant in 50 mM citrate buffer at pH 6. Approximately 0.8 mL of the enzyme solution was applied on ˜200 mg hair samples (4 test tresses) for 10 minutes. H2O2 and triacetin, formulations were made according to Example 24, in 20% LUBRIDERM® lotion in 50 mM citrate buffer at pH 6. After application of 400 μL each of the reagents, the treatment was allowed to continue for 20 minutes after which the hair was rinsed with tap-water and allowed to dry. Before proceeding with the next cycle the sample was subjected to the surfactant wash with 5% TWEEN®-20 in 50 mM citrate buffer at pH 6 and rinsed with tap-water.
After treatment for a defined number of cycles, 10 mg of hair was cut from each tress and placed into 2 mL microcentrifuge tubes (Eppendorf Protein LoBind; Eppendorf North America, Hauppauge, N.Y.). To each tube was added 480 uL of PAH buffer (50 mM potassium phosphate pH 7.2), 14 μL of 30% hydrogen peroxide (Sigma 3410), and 6 μL triacetin (Sigma-Aldrich, W200700). The perhydrolase reaction was allowed to proceed for 10 minutes at 25° C. The reaction was stopped by diluting aliquots 10×, 100× and 1000× with 10 mM phosphoric acid. For detection, 50 μL of 1 M acetic acid, 50 μL of 40 mg/mL potassium iodide, and 50 μL of 4 mM ABTS (2,2′-azino-bis(3-ethylbenzthiazoline-6-sulphonic acid; Sigma, St Louis, Mo.) were added to 50 μL of the above dilutions. Color was allowed to develop for 10 minutes and read in a spectrophotometer at 405 nm. Values from no-enzyme controls were subtracted to yield values attributable only to enzyme activity. A standard curve of OD 405 nm vs PAA concentration in ppm yielded a conversion factor of 8.75, such that an OD 405 nm of 1.0 corresponded to approximately 8.75 ppm PAA. This value was then multiplied by the appropriate dilution to arrive at the PAA concentration in the perhydrolase reaction.

[2] = One-step procedure on hair tresses, hair color loss ΔE
Experimental: The hair tresses in these examples were cut from the stock medium brown hair swatches that were custom made by International Hair Importers (Glendale, N.Y.). Each hair tress was glued at one end, and cut at 5 mm width and 4 cm long (excluding the glued portion), with 100+/−20 mg net hair weight. For each test condition, triplicates of hair tresses were used. In the one-step procedure, each hair tress was placed in a clean plastic weighing tray (VWR, Cat. #12577-053), then 1 mL of the perhydrolase HC1121 solution in a buffer was applied to the hair tress, and was rubbed into the hair tress with an applicator. Then calculated amount of triacetin and 30% H2O2 were applied onto each hair tress and rubbed into the hair tress which gave 200 mM triacetin and 100 mM H2O2. The hair tress sat in this reaction mixture for 30 min, before being washed thoroughly with tap water followed by paper towel dry. This completed a 30 min treatment cycle. The treatment cycle was repeated 16 times. Hair tress became lighter-colored and weakened during the treatment. After final rinse and air-drying, tensile strength tests as described in Example 25 were conducted on each hair tress to quantify hair weakening. In addition, L*, a*, b* color measurements were taken for each hair sample to quantify hair color loss, and L*, a*, b* color measurements were also taken for untreated hair as a reference for ΔE color difference calculations. ΔE was calculated in the standard way as ΔE=((L*−L*ref)^2+(a*−a*ref)^2+(b*−b*ref)^2)^0.5. […] At pH 6, when 30 μg/mL HC1121 was used which gave 0.3 μg/mg hair E/H ratio, the tensile strength of treated hair tress reduced to 1.9 N/mg hair, approaching 1.5 N/mg hair, the benchmark strength of hair treated with NAIR® cream for 5 min. At pH 7, when 30 μg/mL HC1121 was used, the tensile strength of treated hair tress was 0.3 N/mg hair, much less than the 1.5 N/mg hair benchmark. Therefore, proper concentration of enzyme at proper pH could weaken hair effectively. The measured hair color loss for treated hair tresses correlated well with the weakening of hair: the greater hair weakening, the greater hair color loss.
Hair tresses were treated using the same procedure as described in Example 40, except that SLES (sodium laurel ether sulfate, a common soap ingredient) wash step was added before tap water rinse step each cycle to imitate daily shower in real life, where 1 mL 1% SLES (“RHODAPEX ES 2K” by Rhodia Inc., Cranbury, N.J.) was transferred onto hair tress and the hair tress was rubbed with gloved hand on the palm for 30 seconds. The treatment parameters for this example (enzyme concentration, pH and buffer concentration, and treatment cycle time) were shown in Table 34. For the 24 hr treatment cycle, the hair tress sat in the mixture for 1 hr before being taken out to a dry dish. The hair tress sat dry for 23 hr before being washed with 1 mL 1% SLES followed by tap water rinse and paper towel dry. For the 30 min treatment cycles, the treatment cycle was repeated 16 times. […] After final rinse and air-drying for each hair tress, tensile strength test and color measurement as described in Example 40 were conducted on each hair tress to quantify hair weakening and hair color loss. […] Hair tensile strength ranged from 0.3 to 0.8 N/mg hair, much less than the 1.5 N/mg hair tensile strength benchmark. Stronger hair weakening occurred at higher buffer concentration and longer treatment time. […] Therefore, it was anticipated that even lower enzyme concentration could be used to reach benchmark hair weakening at slightly higher pH (pH 6.6 compared to pH 6 in Example 40), higher buffer concentration and longer treatment time.
Hair tresses were treated using the same procedure for 24 hr treatment cycles as described in Example 41 using 10 μg/mL HC1121 at pH 6.6 and substrates at various concentrations. […]

B1: C277S-HC263: C277S variant of Thermotoga maritima perhydrolase fused via a flexible linker to hair-binding domain HC263 (protein)
chain: MAFFDLPLEELKKYRPERYEEKDFDEFWEETLAESEKFPLDPVFERMESHLKTVEAYDVTFSGYRGQRIKGWLLVPKLEEEKLPCVVQYIGYNGGRGFPHDWLFWPSMGYICFVMDTRGQGSGWLKGDTPDYPEGPVDPQYPGFMTRGILDPRTYYYRRVFTDAVRAVEAAASFPQVDQERIVIAGGSQGGGIALAVSALSKKAKALLCDVPFLCHFRRAVQLVDTHPYAEITNFLKTHRDKEEIVFRTLSYFDGVNFAARAKIPALFSVGLMDNISPPSTVFAAYNYYAGPKEIRIYPYNNHEGGGSFQAVEQVKFLKKLFEKGGPGSGGAGSPGSAGGPGSPSAQSQLPDKHSGLHERAPQRYGPEPEPEPEPIPEPPKEAPVVIEKPKPKPKPKPKPPAHDHKNQKETHQRHAAGSGGGGSPHHHHHH
With B1 the “OD 405nm” value ([1]; 10 mg hair after 1 cycle) was 0.172, the PAA ([1]; 10 mg hair after 1 cycle, 10 min reaction) was 150.8 ppm and the “OD 405nm” value ([1]; 10 mg hair after 4 cycles) was 0.439. The PAA ([1]; 10 mg hair after 4 cycles) was 384.1 ppm, the “OD 405nm” value ([1]; 10 mg hair after 8 cycles) was 0.901 and the PAA ([1]; 10 mg hair after 8 cycles) was 788.4 ppm. For the same molecule, the “OD 405nm” value ([1]; 10 mg hair after 12 cycles) was 1.287, the PAA ([1]; 10 mg hair after 12 cycles) was 1126.1 ppm and the “OD 405nm” value ([1]; 10 mg hair after 16 cycles) was 1.894. The PAA ([1]; 10 mg hair after 16 cycles) was 1657 ppm, the “Hair color loss avg ΔE” value ([2]; 10 μg/mL HC1121, pH 6.6, 50 mM phosphate, 200 mM TA/100 mM H2O2, 24 hr/cycle, 8 cycles) was 13.8 and the “Hair color loss avg ΔE” value ([2]; 10 μg/mL HC1121, pH 6.6, 50 mM phosphate, 200 mM TA/200 mM H2O2, 24 hr/cycle, 8 cycles) was 16.7. The “Hair color loss avg ΔE” value ([2]; 10 μg/mL HC1121, pH 6.6, 50 mM phosphate, 200 mM TA/300 mM H2O2, 24 hr/cycle, 8 cycles) was 20.1, the “Hair color loss avg ΔE” value ([2]; 10 μg/mL HC1121, pH 6.6, 50 mM phosphate, 200 mM TA/500 mM H2O2, 24 hr/cycle, 8 cycles) was 21.8 and the “Hair color loss avg ΔE” value ([2]; 10 μg/mL HC1121, pH 6.6, 50 mM phosphate, 500 mM TA/500 mM H2O2, 24 hr/cycle, 8 cycles) was 22.3. The “Hair color loss avg ΔE” value ([2]; one-step, 5 μg/mL enzyme, pH 6, 30 min × 16) was 5.2, the “Hair color loss avg ΔE” value ([2]; one-step, 15 μg/mL enzyme, pH 6, 30 min × 16) was 6.8 and the “Hair color loss avg ΔE” value ([2]; one-step, 30 μg/mL enzyme, pH 6, 30 min × 16) was 8.7. The “Hair color loss avg ΔE” value ([2]; one-step, 30 μg/mL enzyme, pH 7, 30 min × 16) was 16.6, the “Hair color loss avg ΔE” value ([2]; one-step, pH 6.6, 50 mM buffer, 30 min/cycle X 16 cycles, SLES wash each cycle) was 17.7 and the “Hair color loss avg ΔE” value ([2]; one-step, pH 6.6, 50 mM buffer, 24 hr/cycle X 7 cycles, SLES wash each cycle) was 15.6. The “Hair color loss avg ΔE” value ([2]; one-step, pH 6.6, 100 mM buffer, 30 min/cycle X 16 cycles, SLES wash each cycle) was 24.2.
